Data from US20240309087A1 (SHANGHAI JUNSHI BIOSCIENCES, published 2024).
Positions count from the first letter of the chain named.

T1: human CD112R on Jurkat CD112R effector cells (human, UniProt Q6DKI7 1-326)
T1 sequence (looked up): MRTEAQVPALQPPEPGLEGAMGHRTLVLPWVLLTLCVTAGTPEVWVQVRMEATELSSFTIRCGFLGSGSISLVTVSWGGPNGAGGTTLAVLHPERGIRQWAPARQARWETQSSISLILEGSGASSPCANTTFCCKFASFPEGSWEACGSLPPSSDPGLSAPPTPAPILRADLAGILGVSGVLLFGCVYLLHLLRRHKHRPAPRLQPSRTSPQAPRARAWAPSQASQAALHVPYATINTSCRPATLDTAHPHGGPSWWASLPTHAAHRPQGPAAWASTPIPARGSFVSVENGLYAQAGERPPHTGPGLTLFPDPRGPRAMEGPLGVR

T2: human CD112R on CHO-CD112R cells (human, UniProt Q6DKI7 41-326)
T2 construct: whole, on cells; also called hCD112R; PVRIG
T2 sequence (looked up): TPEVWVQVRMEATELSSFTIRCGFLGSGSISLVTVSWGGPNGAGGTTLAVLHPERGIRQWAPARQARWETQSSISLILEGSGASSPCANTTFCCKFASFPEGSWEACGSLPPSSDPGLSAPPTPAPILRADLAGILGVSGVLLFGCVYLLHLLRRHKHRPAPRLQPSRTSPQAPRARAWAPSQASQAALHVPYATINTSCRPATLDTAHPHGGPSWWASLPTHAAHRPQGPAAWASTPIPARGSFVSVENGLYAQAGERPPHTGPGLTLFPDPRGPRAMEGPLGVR

T3: hCD112R mFC recombinant protein (human; murine, UniProt Q6DKI7 41-160)
T3 construct: range 41-160; expressed in 293E cells; also called hCD112R ECD mFC; hCD112R-ECD-mFC; not shown: murine IgG2a Fc domain (MX2-mFc vector)
T3 sequence (looked up): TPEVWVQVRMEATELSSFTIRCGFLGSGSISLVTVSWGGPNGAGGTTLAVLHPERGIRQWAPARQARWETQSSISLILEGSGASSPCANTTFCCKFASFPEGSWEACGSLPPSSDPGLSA

T4: recombinant cynomolgus monkey CD112R antigen (cynomolgus monkey, UniProt A0A2K5WVV8 1-322)
T4 construct: bought
T4 sequence: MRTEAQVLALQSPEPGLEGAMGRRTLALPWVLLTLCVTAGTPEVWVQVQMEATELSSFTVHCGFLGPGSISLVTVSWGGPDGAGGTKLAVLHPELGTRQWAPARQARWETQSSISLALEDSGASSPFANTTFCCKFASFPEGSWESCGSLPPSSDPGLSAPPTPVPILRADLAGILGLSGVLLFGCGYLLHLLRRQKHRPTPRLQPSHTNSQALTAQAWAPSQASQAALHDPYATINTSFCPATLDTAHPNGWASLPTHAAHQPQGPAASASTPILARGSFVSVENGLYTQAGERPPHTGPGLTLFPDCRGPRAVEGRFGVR

B1: 7C2.1 (antibody, V domains shown)
VH: DVKLVESGGGLVKLGGSLKLSCAASGFTFSSYHMSWIRQTPEKRLELVAAINSNGINTYYLDTVKGRFTISRDNAKNTLYLQMSSLKSEDTALYYCARHEDYYGFAMDYWGQGTSVTVSS
VL: SIVMTQTPKFLLVSAGDRVTITCKASQSVSNDVAWYQQKPGQSPKLLMYYVSNRFTGVPDRFTGSGYGTDFTFTINTVQAEDLAVYFCQQAYRSPWTFGGGTKLEIK
B2: 6A10.1 (antibody, V domains shown)
VH: B1 VH with I37V, G55V, N57S
VL: B1 VL with Q38E, N53H, Q89H
B3: Chi-61 (antibody, V domains shown)
VH: DVKLVESGGGLVKLGGSLKLSCAASGFTFSSYHMSWVRQTPEKRLELVAAISRDGDSTYYPDTVKGRFTISRDDAENTLYLQMSSLKSEDTALYYCSRHEDYFGFAMDSWGQGTSVTVSS
VL: B1 VL with Q38E, N53H, Q89H
notes: chimeric
B4: 6A6.1 (antibody, V domains shown)
VH: EVQLQQSGAELVRSGTSVTLSCTASGFNIRDYFIHWVKQRPEQGLEWIGWIIPASGDTDCAPIFQGKATLTADTFSNTAYLHLNSLTSEDTAVYYCNTWVWSPYAVDYWGQGTSVTVSS
VL: DVLMTQTPLSLPVSLGDQTSISCRSSQSIVHSNGNTYLHWYLQKPGQSPKLLIYKVSNRFSGVPDRFSGSGSGTDFTLKISRVEAEDLGVYYCFQGSHVPWTFGGGTRLEIK
notes: murine hybridoma antibody
B5: 6C6.1 (antibody, V domains shown)
VH: EVQLQQSGPELVRPGASVRISCKASGYTFTDYNMNWVKQSHGKSLEWIGYIYPYNGGAGYNQNFKNKATLTVDTYSRAAYMELRSLTSEDSAVYYCARERGMQRDYFDYWGQGTILTVSS
VL: DIQMTQSPASLSVSVGETVTITCRTSENIYSNLAWYQQKQGKSPQLLVYAATNLADGVPSRFSGSGSGTQFSLKINSLQSGDFGSYFCQHFWGTPYTFGGGTKLEIK
notes: murine hybridoma antibody
B6: 6D2.1 (antibody, V domains shown)
VH: EVQLQQSGPELVKPGASVKISCKASGYTFTDYNIHWVKQSHGKRPDWIGYNYPYNGGAGYNQNFRSRATLTVDKFSSTAYMELRSLTSEDSAVYYCAGEEVRRGPFYFWGQGTSVTVSS
VL: DIQMTQSPDSLSASVGETVTITCRTSENIYSFLVWYQQKQGKSPQLLVYNAKTLAEGVPSRFSGSGSGTQFSLKINSLQPEDFGTYYCQHYYGTPYTFGGGTKLEIK
notes: murine hybridoma antibody
B7: 8D3.1 (antibody, V domains shown)
VH: QIQLVQSGPELKKPGETVKISCKASGYTFTDYSMHWVKQAPGKGLKWVGWISTETAQPTYADDFRGRFAFSLETSASTAYLQINNLRNEDTATYFCATGNYGWYFSVWGAGTTVTVSS
VL: ENVLTQSPAIMSASPGEKVTMTCRATSGVSSSYLFWYQQKSGASPKIWIYSTSNLASGVPTRFSGSGSGTSYSLTISSVEAEDAATYYCQQYSGYPYTFGGGTKLEIK
notes: murine hybridoma antibody
B8: 1D11.1 (antibody, V domains shown)
VH: EVQLQQSGPELVKPGASVKISCKASGYPFINYNIHWLRQSRGKSLEWIGYVYPYNGVPGYNQKFKSKATLTADNSFSTAYMEFRSLTSEDSAVYFCARERGRDYFDSWGQGTSLTVSS
VL: DIQLTQSPASLSVSVGETVTITCRVSANIYSNLVWYHQRQGKSPQLLVYGGTNLADGVPSRFSGSGSGTQFSLKINSLQSEDFGSYHCQHFWSTPYTFGGGTKLEIK
notes: murine hybridoma antibody
B9: 5B1.1 (antibody, V domains shown)
VH: B4 VH
VL: DIVMTQFPSSLSVPVGEKVTMNCKSSQSLLNSGNQKNFLAWYQQKPGQPPKLLIYGASTRESGVPYRFTGSGSGTDFTLTISSVQAEDLAVYYCQNDHSYPWTFGGGTKLEIK
notes: murine hybridoma antibody

Columns and labels:
[1] = biological target: T1, human CD112R on Jurkat CD112R effector …; assay: cell-based or functional assay
[2] = biological target: T2, human CD112R on CHO-CD112R cells; assay: FACS on CHO-CD112R cells; EC50 Ref/EC50 antibody
Protocol: (§1) CHO-CD112R cells (constructed in-house by Junshi, the amino acid sequence of CD112R in the construction of stable cell lines overexpressing CD112R comprises amino acids at positions Met1-Arg326 under NCBI accession No. Q6DKI7) overexpressing human CD112R were incubated with each of the chimeric anti-CD112R antibodies at different concentrations (initial concentration: 50 μg/mL, 5-fold dilution, 12 concentration gradients in total) at 4° C. for 30 min, and then washed and incubated with a fluorescence-labeled secondary antibody at 4° C. for 30 min in the dark. Finally, the cells were collected by using a flow cytometer (BD Canto II), and the fluorescent antibodies bound to the cell surface were detected. Raw data were analyzed by using FlowJo to obtain MFI values, the antibody dose-dependent binding curves were fitted by using GraphPad (FIG. 3, a and b) and EC₅₀ was calculated (Table 3). The positive control and the negative control were Ref (anti-CD112R antibody, University of Colorado, obtained by expression and purification according to the sequences in US20170240613) and anti-KLH hu-IgG4 antibody, respectively.

[3] = biological target: T3, hCD112R mFC recombinant protein; assay: FACS competition, hCD112R mFc on CHO CD112 cells
Protocol: (§2) Cells CHO CD112 overexpressing human CD112 were co-incubated with a hCD112R mFc protein solution (5 μg/mL) prepared in a staining buffer (PBS+1% FBS), and the chimeric anti-CD112R antibodies or the control antibodies at different concentrations (initial concentration: 100 μg/mL, 3-fold dilution, 10 concentration gradients) at 4° C. for 30 min. Unbound antibodies were then washed with a staining buffer and the cells were incubated with 1% (v/v) goat anti-mouse IgG Fc fluorescent secondary antibodies (Jackson ImmunoResearch) prepared in a staining buffer at 4° C. for 30 min in the dark. Finally, the cells were collected by using a flow cytometer (BD Canto II), and the fluorescent antibodies bound to the cell surface were detected. Raw data were analyzed by using FlowJo to obtain MFI values, and a four-parameter curve fitting was performed by using GraphPad Prism software to obtain IC₅₀ values. The positive control and the negative control were Ref (anti-CD112R antibody, University of Colorado, obtained by expression and purification according to the sequences in US20170240613) and the anti-KLH hu-IgG4 antibody, respectively.
As shown in FIG. 5 (a and b) and Table 8, the following 13 chimeric antibodies were all capable of effectively blocking the binding of the CD112R protein to CHO-CD112 cells.

[4] = biological target: T3, hCD112R mFC recombinant protein; assay: FACS competition, hCD112R mFc on CHO CD112 cells; ratio Ref/antibody
Protocol: as §2

[5] = biological target: T4, recombinant cynomolgus monkey CD112R …; assay: ELISA, coated cynomolgus monkey CD112R; EC50 Ref/EC50 antibody
Protocol: (§3) A plate was coated with a recombinant cynomolgus monkey CD112R antigen (Acrobiosystems, Cat No. PVG-C5259) at a fixed concentration, and the chimeric anti-CD112R antibodies diluted in a gradient (initial concentration: 1 μg/mL, 2.5-fold gradient dilution, 12 concentration gradients in total) were added to bind to the antigen. Horseradish peroxidase (HRP)-conjugated mouse anti-human IgG4 Fc (Southern Biotech, 9200-05) was subjected to a 5000-fold dilution and used as a detection antibody for detection. The color development was performed with 0.1 mg/mL TMB, and finally stopped with 2 M hydrochloric acid. The plate was read at 420 nm/620 nm. EC₅₀ was obtained by fitting with a four-parameter logistic regression (4PL) model.

[6] = biological target: T4, recombinant cynomolgus monkey CD112R …; assay: ELISA, coated cynomolgus monkey CD112R
Protocol: as §3

[7] = biological target: T2, human CD112R on CHO-CD112R cells; assay: FACS on CHO-CD112R cells
Protocol: as §1

[8] = biological target: T1, human CD112R on Jurkat CD112R effector …; assay: cell-based or functional assay; remark: listed apart in the source
[9] = biological target: T3, hCD112R mFC recombinant protein; assay: FACS blocking: hCD112R mFc (5 µg/mL) binding to human CD112 on CHO CD112 cells, MFI-APC; unit from the axis (µg/mL), Table 8 says ng/ml
Protocol: as §2

[10] = biological target: T3, hCD112R mFC recombinant protein; assay: FACS competition, hCD112R mFc on CHO CD112 cells; remark: listed apart in the source
Protocol: Unbound antibodies were then washed with a staining buffer and the cells were incubated with 1% (v/v) goat anti-mouse IgG Fc fluorescent secondary antibodies (Jackson ImmunoResearch) prepared in a staining buffer at 4° C. for 30 min in the dark. Finally, the cells were collected by using a flow cytometer, and the fluorescent antibodies bound to the cell surface were detected. Raw data were analyzed by using FlowJo to obtain MFI values, and a four-parameter curve fitting was performed by using GraphPad Prism software to obtain IC₅₀ values.

[11] = biological target: T3, hCD112R mFC recombinant protein; assay: Biacore T200, antibody captured, hCD112R mFc injected
Protocol: Biacore T200 was used to assay the binding affinity of the anti-CD112R hybridoma antibodies for the recombinant hCD112R mFc protein. […] antibody fragments (Jackson ImmunoResearch) were coupled to the surface of a CM5 chip, and the anti-CD112R hybridoma antibodies were each captured by using the chip, after which recombinant hCD112R mFc proteins at different concentrations were injected into the CM5 chip.

| Binder | IC50 [10] [µg/mL] | Kd [11] [nM] | other results |
| --- | --- | --- | --- |
| B1 |  |  | EC50, CD112R/CD112 NFAT-luciferase reporter [1]: 0.0379 µg/mL |
| B2 |  |  | EC50, CD112R/CD112 NFAT-luciferase reporter [1]: 0.0507 µg/mL |
| B3 |  |  | Relative activity (%) [2]: 3990%; IC50 [3]: 0.965 µg/mL; Relative activity (%) [4]: 110%; Relative activity (%) [5]: 83.8%; EC50 [6]: 0.005 µg/mL; EC50 [7]: 0.107 µg/mL; EC50, CD112R/CD112 reporter [8]: 0.019 µg/mL; Relative activity (%), EC50 Ref/EC50 antibody [8]: 1590%; IC50 [9]: 0.965 µg/mL |
| B4 | 0.145 | 0.0174 |  |
| B5 | 0.0229 | 0.0205 |  |
| B6 | 0.272 | 0.0134 |  |
| B7 | 0.148 | 0.0158 |  |
| B8 | 0.207 | 0.0236 |  |
| B9 | 0.147 | 0.0163 |  |
